Experimental data reported in the supplement of paper PMC10567573.

B1: RHOBTB1 (parent)
chain: TFGDHHKDRRFAYGRSDVVVLCFS
B2: ADAMTSL2 (parent)
chain: KKPPEESTCFERPCFKWYTSPWSE

Variants of: B1
Experiment: protein stability index of a GFP-peptide fusion (GPS, HEK-293T) (PSI 1-6); higher = more stable
Details: c terminus: a fixed tail appended
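Note: lentivirally expressed fusions sorted by FACS into six bins by GFP to DsRed ratio, PSI derived from sequencing read proportions per bin multiplied by bin number.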

Protein stability index: each site, then its substitutions
H5: R 2.59; P 3.97; Q 2.74; C 2.27; Y 2.15; A 2.25; D 2.41; G 1.21; W 3.81; F 2.45
R10: S 3.52; C 2.7; P 3.19; I 1.96; M 1.76; H 2.59; V 2.19; D 2.03; G 4.76; N 3.35; Q 2.27; K 2.21; E 1.47
F11: S 1.13; E 1.49; D 1.78; H 2.37; Y 1.27; N 2.49; L 1.98; P 1.89; I 2.38; A 1.69
R15: N 1.84; V 4.25; E 1.75; Y 3.25; K 2.27; A 2.04; I 2.55; L 2.23; P 1.48; T 2.11; D 2.36
R9: H 3.56; Q 3.83; I 3.77; K 1.97; E 2.75; S 1.86; L 2.66; T 1.42; P 3; N 2.58
H6: E 3; Q 2.14; S 2.21; C 1.2; K 2.33; F 2.33; T 1.94; L 3.15
L21: A 1.62; C 1.85; V 2.86; E 2.79; S 2.15; M 2.78; D 2.68; R 1.96; I 1.49; F 2.07; Q 2.4; N 2.44; T 2.14; P 2.56
G3: V 3.29; I 2.42; W 2.33; D 2.11; N 1.98; S 2.45; F 1.39; A 1.83; P 2.48; E 2.98
S24: G 2.54; H 2.98; R 2.95; D 1.66; E 2.05; N 1.65; Y 4.57; P 1.48; T 2.16; F 2.84
D8: G 1.87; L 4.19; Q 4.86; N 2.29; F 1.92; P 2.77; R 2.96; S 2.76; Y 4.4; W 3.29
V20: R 1.97; S 1.95; Q 1.7; Y 1.75; H 1.62; L 2.42; D 2.62; K 1.73; A 3.28; N 2.56; E 2.7; F 2.54; M 1.44; C 1.51; T 1.68; P 2.61
S16: E 2.07; I 1.57; Y 1.23; L 2.15; K 2.43; H 2.91; N 2.38; Q 2.83; A 4.21; M 2.96; P 3.17; D 2.52
V18: N 1.57; M 2.06; Q 1.72; P 1.58; R 2.92; S 1.46; Y 2.2; D 2.03; K 3.01; A 1.74; E 2.19; L 3.53; W 2.21; C 2.01; I 1.42
T1: N 1.89; V 3.58; F 4.17; E 2.06; A 2.71; P 2.61; K 2.48; Q 2.25
Y13: H 2.49; N 2.36; S 2.66; D 2.16; T 1.62; M 1.55; I 3.14; K 2.4; P 1.04; Q 2.78; G 1.46; C 2.38
D4: E 3.4; N 2.15; Y 3.19; H 1.51; L 3.29; P 2.46
V19: K 1.92; W 1.37; C 1.26; H 2; S 1.87; N 2.28; L 2.82; Y 2.45; E 1.88; G 1.61; R 1.89; T 2.68; I 2.14; D 2.93; A 2.23; P 1.69; Q 1.52; M 2.17
D17: P 3.44; R 1.79; T 2.67; Q 2.43; W 2.78; N 2.23; F 1.51; K 1.63
G14: T 3.19; I 2.49; S 1.75; E 1.99; V 3.71; F 3.41; D 2.49; R 2.76; N 2.25; H 1.85; P 3.26; K 2.61
A12: L 2.48; Q 2.33; K 1.46; H 3.79; C 2.93; T 2.65; D 2.58; Y 1.9; V 1.95; R 2.98; G 1.57
F2: I 2.17; M 1.81; N 2.23; P 3.35; D 2.19; C 3.44; W 2.28; S 1.02; E 1.31; A 1.63; L 2.32; H 1.85
F23: H 2.6; N 3.08; R 2.38; T 1.68; E 3.12; M 2.59; D 3.1; L 1.42; S 1.66; I 1.41; K 2.25; P 2.16
K7: W 3.28; L 1.46; F 3.68; T 3.37; Q 2.38; M 3.46; S 3.12; G 3.09; N 3.44; C 2.42
C22: L 2.42; T 1.3; G 2.21; W 2.73; Y 1.07; Q 2.2; D 2.32; M 2.88; K 2.17; E 2.2; F 3.21; P 2.21; N 2.23; S 1.94

Variants of: B2
Experiment: as above
Details: c terminus: a fixed tail appended

Protein stability index, by site and new letter:
S23: H 2.55; L 2.34; Q 2.47; R 2.22; I 2.6; G 1.91; F 1.69; P 2.6; N 2.5; T 1.87; M 2.04; Y 2.35; V 2.23; E 3.02; C 2.23; W 2.19; D 2.48; K 2.53; A 1.74
P21: S 1.87; W 1.68; Y 1.73; T 2.75; V 2.33
W22: H 3.6; E 4.18; K 3.6; I 3.03; F 2.98; T 3.97; V 3.27; L 3.07; M 2.6; P 4; Q 3.82; D 3.79; N 3.28; G 3.51; C 3.35; Y 3.05; S 3.61; R 2.95; A 4.34
E24: L 1.72; T 1.97; A 2.06; S 2.07; F 2.27; Q 2.37; P 2.4; C 2.22; W 2.09; N 1.6; I 1.73; G 2.27; H 2.04; V 1.83; K 1.82; M 1.68; D 2.76; Y 2.11; R 1.83
